From patent publication US20120316071A1 (published 2012)

T1: rHuman Erythropoietin R/Fc Chimera, CF (R&D Systems Cat#963-ER) (human, UniProt P19235 25-250)
T1 construct: Bought Fc chimera; also called EPO R/Fc; Epo R; Fc part of the bought chimera not given
T1 sequence (looked up): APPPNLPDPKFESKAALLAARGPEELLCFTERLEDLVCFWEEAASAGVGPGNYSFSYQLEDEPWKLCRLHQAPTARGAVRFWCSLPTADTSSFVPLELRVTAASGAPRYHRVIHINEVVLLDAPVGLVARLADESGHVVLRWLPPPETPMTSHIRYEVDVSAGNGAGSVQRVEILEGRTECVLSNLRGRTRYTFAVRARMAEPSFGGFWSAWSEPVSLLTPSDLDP

T2: rHuman Erythropoietin R/Fc Chimera, CF (R&D Systems Cat#963-ER) (human, UniProt P19235 25-250)
T2 construct: Bought recombinant protein; also called EPO R; EPO R/Fc; Fc part of the bought chimera not given
T2 sequence (looked up): T1 sequence (looked up)

B1: Fab VH6-1_IGHD3-3*01_IGHJ4*01 & V4-3_IGLJ4*01 (Fab, V domains shown)
VH: QVQLQQSGPGLVKPSQTLSLTCAISGDSVSSNSAAWNWIRQSPSRGLEWLGRTYYRSKWYNDYAVSVKSRITINPDTSKNQFSLQLNSVTPEDTAVYYCAREYYDFWSGYYTDYFDYWGQGTLVTVSS
VL: QPVLTQPTSLSASPGASARLTCTLRSGINLGSYRIFWYQQKPESPPRYLLSYYSDSSKHQGSGVPSRFSGSKDASSNAGILVISGLQSEDEADYYCMIWHSSASFVFGGGTQLIIL
notes: Tested as a purified germline Fab made in E. coli; The VH was cloned into plasmid A (CH1 constant region, His6 and Flag tags) and the lambda VL into plasmid E (lambda CL)
B2: Fab VH5-51_IGHD5-18*01>3_IGHJ4*01 G100K/G104T & V3-4_IGLJ1*01 (Fab, V domains shown)
VH: EVQLVQSGAEVKKPGESLKISCKGSGYSFTSYWIGWVRQMPGKGLEWMGIIYPGDSDTRYSPSFQGQVTISADKSISTAYLQWSSLKASDTAMYYCARRKYSYTYDYFDYWGQGTLVTVSS
VL: QTVVTQEPSFSVSPGGTVTLTCGLSSGSVSTSYYPSWYQQTPGQAPRTLIYSTNTRSSGVPDRFSGSILGNKAALTITGAQADDESDYYCVLYMGSGISYVFGTGTKVTVL
notes: Tested as a Fab; The constant parts are the same as for the parent Fab (CH1 with His6/Flag tags, lambda CL); also called KT double mutant; H:KT

Tests used:
[1] = target: T3, rHuman Notch-1/Fc Chimera, CF (R&D Systems Cat#3647-TK) (human, UniProt P46531 19-526); test: MSD Multispot ECL, antigen spotted on plate, Fab at 60 nM; blank spot 237
T3 construct: Bought Fc chimera; Fc part of the bought chimera not given

[2] = target: T4, rHuman P-Cadherin/Fc Chimera, CF (R&D Systems Cat#861-PC) (human, UniProt P22223 108-654); test: as above
T4 construct: Bought Fc chimera; Fc part of the bought chimera not given

[3] = target: T1, rHuman Erythropoietin R/Fc Chimera, CF …; test: as above
[4] = target: T2, rHuman Erythropoietin R/Fc Chimera, CF …; test: ECL multispot (MSD) assay, spotted antigen; Fab 0.20 (head prints uM)
[5] = target: T5, Recombinant Human DLL4 (R&D Systems Cat#1506-D4/CF) (human, UniProt Q9NR61 27-524); test: as above
T5 construct: Bought recombinant protein; also called delta-like protein 4

[6] = target: T6, rHuman ErbB2/Fc Chimera, CF (R&D Systems Cat#1129-ER) (human, UniProt P04626 23-652); test: as above
T6 construct: Bought recombinant protein; Fc part of the bought chimera not given

[7] = target: T7, rHuman EGF R/Fc Chimera, CF (R&D Systems Cat#344-ER) (human, UniProt P00533 25-645); test: as above
T7 construct: Bought recombinant protein; Fc part of the bought chimera not given

[8] = target: T8, rHuman Notch-1/Fc Chimera, CF (R&D Systems Cat#3647-TK) (human, UniProt P46531 19-526); test: as above
T8 construct: Bought recombinant protein; Fc part of the bought chimera not given

[9] = target: T9, rHuman CD44/Fc Chimera, CF (R&D Systems Cat#3660-CD) (human, UniProt P16070 21-220); test: as above
T9 construct: Bought recombinant protein; Fc part of the bought chimera not given

[10] = target: T10, rHuman IGF-1 sR, CF (R&D Systems Cat#391-GR) (human, UniProt P08069 31-932); test: as above
T10 construct: Bought soluble receptor; The column head prints only 'IGF-1'; also called insulin-like growth factor-1 soluble receptor

[11] = target: T11, rHuman P-Cadherin/Fc Chimera, CF (R&D Systems Cat#861-PC) (human, UniProt P22223 108-654); test: as above
T11 construct: Bought recombinant protein; Fc part of the bought chimera not given

[12] = target: T2, rHuman Erythropoietin R/Fc Chimera, CF …; test: ECL multispot (MSD) assay, spotted antigen; Fab 2.00 (head prints uM)
[13] = target: T5, Recombinant Human DLL4 (R&D Systems …); test: as above
[14] = target: T6, rHuman ErbB2/Fc Chimera, CF (R&D …); test: as above
[15] = target: T7, rHuman EGF R/Fc Chimera, CF (R&D …); test: as above
[16] = target: T12, rHuman HGF R/c-MET/Fc Chimera, CF (R&D Systems Cat#358-MT/CF) (human, UniProt P08581 25-932); test: as above
T12 construct: Bought recombinant protein; also called HGF R/Fc; Fc part of the bought chimera not given

[17] = target: T8, rHuman Notch-1/Fc Chimera, CF (R&D …); test: as above
[18] = target: T9, rHuman CD44/Fc Chimera, CF (R&D Systems …); test: as above
[19] = target: T10, rHuman IGF-1 sR, CF (R&D Systems …); test: as above
[20] = target: T11, rHuman P-Cadherin/Fc Chimera, CF (R&D …); test: as above

T12 sequence (P08581 25-932, change not shown): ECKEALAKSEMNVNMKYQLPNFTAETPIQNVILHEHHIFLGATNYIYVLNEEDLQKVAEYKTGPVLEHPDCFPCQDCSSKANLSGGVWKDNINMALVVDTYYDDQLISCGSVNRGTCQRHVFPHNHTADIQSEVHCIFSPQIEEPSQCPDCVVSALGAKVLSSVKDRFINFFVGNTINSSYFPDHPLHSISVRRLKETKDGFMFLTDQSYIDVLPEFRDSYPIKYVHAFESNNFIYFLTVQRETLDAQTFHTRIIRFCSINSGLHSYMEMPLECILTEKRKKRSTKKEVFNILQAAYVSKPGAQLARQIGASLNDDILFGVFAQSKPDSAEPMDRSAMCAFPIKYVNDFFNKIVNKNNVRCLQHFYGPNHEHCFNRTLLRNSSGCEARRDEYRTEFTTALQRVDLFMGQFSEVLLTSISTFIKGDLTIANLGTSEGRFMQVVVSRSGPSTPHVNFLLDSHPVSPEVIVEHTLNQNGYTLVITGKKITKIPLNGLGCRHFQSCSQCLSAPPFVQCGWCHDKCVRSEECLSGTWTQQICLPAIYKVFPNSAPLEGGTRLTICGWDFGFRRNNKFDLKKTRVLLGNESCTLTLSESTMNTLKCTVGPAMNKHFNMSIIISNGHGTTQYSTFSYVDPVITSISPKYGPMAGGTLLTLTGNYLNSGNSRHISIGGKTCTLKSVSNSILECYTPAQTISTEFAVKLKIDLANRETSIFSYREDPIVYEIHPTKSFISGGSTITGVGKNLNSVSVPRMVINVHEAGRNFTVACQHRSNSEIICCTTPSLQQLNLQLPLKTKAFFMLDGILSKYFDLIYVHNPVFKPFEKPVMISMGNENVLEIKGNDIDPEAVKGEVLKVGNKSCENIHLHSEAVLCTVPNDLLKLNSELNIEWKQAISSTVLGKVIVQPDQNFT

Binder	ECL signal [1]	ECL signal [2]	ECL signal [3]	ECL signal/noise ratio [4]	ECL signal/noise ratio [5]	ECL signal/noise ratio [6]	ECL signal/noise ratio [7]	ECL signal/noise ratio [8]	ECL signal/noise ratio [9]	ECL signal/noise ratio [10]	ECL signal/noise ratio [11]	ECL signal/noise ratio [12]	ECL signal/noise ratio [13]	ECL signal/noise ratio [14]	ECL signal/noise ratio [15]	ECL signal/noise ratio [16]	ECL signal/noise ratio [17]	ECL signal/noise ratio [18]	ECL signal/noise ratio [19]	ECL signal/noise ratio [20]
B1	415	372	423																	
B2				1.7	3	2.5	1.5	1.9	1.3	1.9	1.7	4.1	72.7	3.2	3.8	6	1.9	3.5	3.7	4.3
